One assay concerns the target apoe_human APOE (UniProt P02649).
For assay [1], the target named is amrp_human LRPAP1 (UniProt P30533).
The target is the same in assay [2]. The source holds these as a separate data set.

Sequence of amrp_human LRPAP1 (P30533 whole entry): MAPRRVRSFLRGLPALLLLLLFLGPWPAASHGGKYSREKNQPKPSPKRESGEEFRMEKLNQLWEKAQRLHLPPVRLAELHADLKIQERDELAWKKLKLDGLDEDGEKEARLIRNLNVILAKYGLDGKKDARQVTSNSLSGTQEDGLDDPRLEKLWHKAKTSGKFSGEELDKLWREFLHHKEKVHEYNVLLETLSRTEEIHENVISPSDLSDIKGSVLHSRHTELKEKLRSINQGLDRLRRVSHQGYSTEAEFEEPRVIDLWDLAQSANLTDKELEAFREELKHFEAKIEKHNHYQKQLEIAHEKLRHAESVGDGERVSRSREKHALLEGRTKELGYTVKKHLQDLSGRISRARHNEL
Sequence of apoe_human APOE (P02649 whole entry): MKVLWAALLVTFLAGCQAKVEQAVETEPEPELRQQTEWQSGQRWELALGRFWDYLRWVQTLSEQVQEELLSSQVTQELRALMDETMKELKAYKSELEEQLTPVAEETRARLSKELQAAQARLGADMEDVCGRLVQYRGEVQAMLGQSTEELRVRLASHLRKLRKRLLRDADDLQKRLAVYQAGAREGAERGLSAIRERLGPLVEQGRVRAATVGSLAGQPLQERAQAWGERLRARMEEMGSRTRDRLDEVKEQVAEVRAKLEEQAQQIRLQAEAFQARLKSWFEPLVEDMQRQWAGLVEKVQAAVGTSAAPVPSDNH

Consider “Prolow-density lipoprotein receptor-related protein 1 (Homo sapiens), Q07954 D2797A”, for which the “effect of a mutation on the interaction” value with apoe_human APOE and with amrp_human LRPAP1 [1] was “decreasing interaction strength” each time.

As to “Prolow-density lipoprotein receptor-related protein 1 (Homo sapiens), Q07954 D2797A;D2840A”, the “effect of a mutation on the interaction” value with amrp_human LRPAP1 [2] was “decreasing interaction strength”.

These data come from IntAct's records for PubMed 20030366.
